Measured values from the supplement of paper PMC9233669.
Fewer inactive variants are shown than the library holds.

What was measured:
biotinyl-Phe-oxazolone = experiment: self-aminoacylation, catalytic enhancement (BFO) (fold over background); higher = more active; k-Seq, kA / k0A0; sequences stand for … in GGGAAUGGAUCCACAUCUACGAAUUC…UUCACUGCAGACUUGACGAAGCUG
In short: (§1)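 Each biotinyl-aminoacyl-oxazolone, at 2–1250 μM, was incubated with mutagenized RNA pools (0.43 μM) carrying a 21-nt variable region. The 50 μL reactions contained HEPES/NaCl/KCl/MgCl2/CaCl2 buffer with 5% acetonitrile at pH 6.9–7.0 and ran for 90 minutes at room temperature. After streptavidin capture, RNA was measured by qPCR in triplicate and by Illumina sequencing, and catalytic enhancement was calculated as median kA over the uncatalyzed rate from a pseudo-first-order fit of per-sequence fraction reacted.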

biotinyl-Met-oxazolone = experiment: self-aminoacylation, catalytic enhancement (BMO) (fold over background); higher = more active; k-Seq, kA / k0A0; sequences stand for … in GGGAAUGGAUCCACAUCUACGAAUUC…UUCACUGCAGACUUGACGAAGCUG
In short: as §1

biotinyl-Leu-oxazolone = experiment: self-aminoacylation, catalytic enhancement (BLO) (fold over background); higher = more active; k-Seq, kA / k0A0; sequences stand for … in GGGAAUGGAUCCACAUCUACGAAUUC…UUCACUGCAGACUUGACGAAGCUG
In short: as §1

biotinyl-Trp-oxazolone = experiment: self-aminoacylation, catalytic enhancement (BWO) (fold over background); higher = more active; k-Seq, kA / k0A0; sequences stand for … in GGGAAUGGAUCCACAUCUACGAAUUC…UUCACUGCAGACUUGACGAAGCUG
In short: as §1

Row | Sequence | self-aminoacylation (biotinyl-Phe-oxazolone) | self-aminoacylation (biotinyl-Met-oxazolone) | self-aminoacylation (biotinyl-Leu-oxazolone) | self-aminoacylation (biotinyl-Trp-oxazolone)
1 | AAGCUUGCUAACAGUCGCAAG [Fam3.1 aminoacylation ribozyme variant] | 3.33 | 2.4 | 2.5 | –
2 | AAGUGUGCUAAUAGUCGCGAG [Fam3.1 aminoacylation ribozyme variant] | – | – | 2.47 | 2.41
3 | AAGUUUACUAAAAGUCGCAAG [Fam3.1 aminoacylation ribozyme variant] | 2.76 | – | 2.08 | –
4 | AAGUUUGUUAAUAGUCGCAGG [Fam3.1 aminoacylation ribozyme variant] | 5.46 | – | 2.45 | 2.06
5 | AAUUUUGCUAAUAGUCGCAUG [Fam3.1 aminoacylation ribozyme variant] | 3.03 | 2.28 | – | 3.4
6 | ACGUUUGCCAAUAGUCGCAAG [Fam3.1 aminoacylation ribozyme variant] | 6.32 | 2.04 | 2.16 | –
7 | ACGUUUGCUAAUAGUCGCCAG [Fam3.1 aminoacylation ribozyme variant] | 2.03 | 2.26 | – | 2.59
8 | AGGUCUGCUAAUAGUCGCAAG [Fam3.1 aminoacylation ribozyme variant] | 37 | 2.08 | – | 9.95
9 | AUCCACCUAGGUCAUAGGGUG [Fam2.2 aminoacylation ribozyme variant] | 2.19 | – | 2.16 | 2.2
10 | AUGACCCUGGUCAUCAAGUGA [Fam2.1 aminoacylation ribozyme variant] | 2.74 | 2.4 | 2.28 | 2.06
11 | AUUAACCUAGAUCAUCGGGUG [Fam2.2 aminoacylation ribozyme variant] | 14.9 | 2.81 | 2.84 | 2.54
12 | AUUACCCUGCUCUUCGAGUGA [Fam2.1 aminoacylation ribozyme variant] | 2.38 | 2.02 | 2.36 | 2.72
13 | AUUACCCUGGGCAUCGAGUGU [Fam2.1 aminoacylation ribozyme variant] | 2.53 | 2.02 | – | 2.31
14 | AUUACCCUGGGGAUCGAGUGA [Fam2.1 aminoacylation ribozyme variant] | 14.1 | 2.55 | 3.34 | 3.94
15 | AUUACCCUGGUACUCGAGUGA [Fam2.1 aminoacylation ribozyme variant] | 10.3 | 2.66 | 2.66 | 3.35
16 | AUUACCCUGGUCAUCCAGUGC [Fam2.1 aminoacylation ribozyme variant] | 5.75 | – | 2.19 | –
17 | AUUACCCUGGUCAUCGAGAAA [Fam2.1 aminoacylation ribozyme variant] | 5.05 | 2.8 | 2.97 | 2.58
18 | AUUACCCUGGUCGUGGAGUGA [Fam2.1 aminoacylation ribozyme variant] | 12.3 | 2.19 | 2.42 | 2.5
19 | AUUACCGUGCUCAUCGAGUGA [Fam2.1 aminoacylation ribozyme variant] | 2.01 | 2.12 | 2.64 | 3.33

Row | Sequence | self-aminoacylation (biotinyl-Phe-oxazolone) | self-aminoacylation (biotinyl-Met-oxazolone) | self-aminoacylation (biotinyl-Leu-oxazolone) | self-aminoacylation (biotinyl-Trp-oxazolone)
20 | AUUACGCUGGUCAUCAAGUGA [Fam2.1 aminoacylation ribozyme variant] | 2.38 | 2.63 | 2.55 | 3.76
21 | AUUACUCUGGUCAUCGAGGGA [Fam2.1 aminoacylation ribozyme variant] | – | 2.09 | – | 2.13
22 | AUUAUCCUGGUCAUCGAGGGA [Fam2.1 aminoacylation ribozyme variant] | – | – | 2.02 | –
23 | AUUCAACUAGGUAAUCGGGUG [Fam2.2 aminoacylation ribozyme variant] | 19 | 2.72 | 3.41 | 2.81
24 | AUUCACAUAGGUCAUCGGGGG [Fam2.2 aminoacylation ribozyme variant] | – | 2.28 | – | 2.66
25 | AUUCACCAAGGUCAUAGGGUG [Fam2.2 aminoacylation ribozyme variant] | 9.85 | 2.48 | 4.37 | 2.2
26 | AUUCACCGAGGUCAUCGGGAG [Fam2.2 aminoacylation ribozyme variant] | 4.74 | 2.23 | – | –
27 | AUUCACCUACGUCAACGGGUG [Fam2.2 aminoacylation ribozyme variant] | 9.97 | 2.35 | 3.09 | 2.84
28 | AUUCACCUACGUCAUCAGGUG [Fam2.2 aminoacylation ribozyme variant] | 9.1 | 2.73 | 2.86 | 2.08
29 | AUUCACCUAGAUCAUCGGGUA [Fam2.2 aminoacylation ribozyme variant] | 5.46 | 2.12 | – | –
30 | AUUCACCUAGGUAAUCUGGUG [Fam2.2 aminoacylation ribozyme variant] | 16.9 | 3.3 | 4.66 | 3.62
31 | AUUCACCUAGGUCAUCGGGAC [Fam2.2 aminoacylation ribozyme variant] | 2.12 | 2.56 | 3 | 2.55
32 | AUUCACCUAGGUCAUCUCGUG [Fam2.2 aminoacylation ribozyme variant] | 5.77 | – | 2.29 | –
33 | AUUUCCCUGGUCAUCAAGUGA [Fam2.1 aminoacylation ribozyme variant] | 2.51 | – | 2.2 | 2.88
34 | CAACUUCAAACAAUCGGUCGG [Fam1A.1 aminoacylation ribozyme variant] | 87.2 | 2.1 | 2.79 | 32.4
35 | CAGCUUCAAACAAUCGGUCUG [Fam1A.1 aminoacylation ribozyme variant] | 52 | – | 2.01 | 27.1
36 | CCACACUUCAAGCAAGCGGUG [Fam1B.1 aminoacylation ribozyme variant] | – | 2.45 | 3.19 | 2.4
37 | CCACACUUCGAGCAAUCGGGC [Fam1B.1 aminoacylation ribozyme variant] | 9.16 | – | 2.07 | –
38 | CCACAGUUCAAGCAAUCGCUC [Fam1B.1 aminoacylation ribozyme variant] | 2.03 | – | 2.43 | –

Row | Sequence | self-aminoacylation (biotinyl-Phe-oxazolone) | self-aminoacylation (biotinyl-Met-oxazolone) | self-aminoacylation (biotinyl-Leu-oxazolone) | self-aminoacylation (biotinyl-Trp-oxazolone)
39 | CCACUUCAAUCAAUCGGUCUG [Fam1A.1 aminoacylation ribozyme variant] | 41.8 | – | 2.1 | 29.4
40 | CCCGACUUCAAGCAAUCGGUC [Fam1B.1 aminoacylation ribozyme variant] | 91.8 | – | 2.85 | 47.6
41 | CGACUUCAAACAAUCGGUUUG [Fam1A.1 aminoacylation ribozyme variant] | 63.5 | – | 2.33 | 32.7
42 | CUACUUCAAACAAUCGCUGUG [Fam1A.1 aminoacylation ribozyme variant] | – | – | 2.54 | –
43 | CUGCUUCAAACAAUCGGUGUG [Fam1A.1 aminoacylation ribozyme variant] | 124 | 2.12 | 3.16 | 49.6
44 | CUGUUUCAAACAAUCGGUCUG [Fam1A.1 aminoacylation ribozyme variant] | 96.2 | – | 2.48 | 38.4
45 | CUUAGCCUGGUCAUCGAGUGA [Fam2.1 aminoacylation ribozyme variant] | 2.6 | 2.57 | 3.38 | 2.72
46 | CUUCUUCAACCAAUCGGUCUG [Fam1A.1 aminoacylation ribozyme variant] | 9.05 | – | – | 6.07
47 | GAGUUUGCUAAUAGUCGAAAG [Fam3.1 aminoacylation ribozyme variant] | 13.3 | – | – | 5.05
48 | GUACUUCAAACAAUCGGACUG [Fam1A.1 aminoacylation ribozyme variant] | 5.92 | – | – | 5.26
49 | GUACUUCAAAUAAUCGGUCUG [Fam1A.1 aminoacylation ribozyme variant] | 10.4 | – | – | 10.7
50 | UAACUUCAAACAAUCGGUCUG [Fam1A.1 aminoacylation ribozyme variant] | 55.3 | – | 2.04 | 27.1
51 | UAAUUUGCUAAUAGUCGCAAG [Fam3.1 aminoacylation ribozyme variant] | 2.21 | – | – | 2.01
52 | UAGUUUGCUAAUAGUCGCAAG [Fam3.1 aminoacylation ribozyme variant] | 9.38 | – | – | 3.18
53 | UCACCCUUCAAGCAAUCGGUC [Fam1B.1 aminoacylation ribozyme variant] | 10.5 | – | – | 6.03
54 | UCACUCUUCAAGCAAUCGGUC [Fam1B.1 aminoacylation ribozyme variant] | 27 | – | – | 12.7
55 | UCACUUCAAACAAUCGGUCUG [Fam1A.1 aminoacylation ribozyme variant] | 70.7 | – | 2.11 | 35.1
56 | UUAGUUCAAACAAUCGGUCUG [Fam1A.1 aminoacylation ribozyme variant] | 4.01 | – | – | 2.94
